These results are taken from patent US20230265187A1 (published 2023).

Where a chain is given by its changes, count along the chain named.

The chains are these.
T1: his-tagged human TIGIT (Acro Biosystems #TIT-H52H3) (human, UniProt Q495A1 22-141)
T1 construct: Bought protein; also called His-tagged-TIGIT (human); not shown: his tag
T1 sequence (looked up): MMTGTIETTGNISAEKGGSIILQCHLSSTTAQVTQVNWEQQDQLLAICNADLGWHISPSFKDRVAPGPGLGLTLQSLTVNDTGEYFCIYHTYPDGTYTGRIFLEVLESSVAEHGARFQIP

T2: his-tagged murine TIGIT (Acro Biosystems #TIT-M52E6) (murine, UniProt P86176 29-148, limits assumed)
T2 construct: Bought protein; also called mouse his-tagged TIGIT; not shown: his tag
T2 sequence (looked up): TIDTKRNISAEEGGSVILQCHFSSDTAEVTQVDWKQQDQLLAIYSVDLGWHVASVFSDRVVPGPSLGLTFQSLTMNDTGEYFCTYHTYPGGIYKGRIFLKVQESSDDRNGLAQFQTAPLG

T3: human TIGIT on Jurkat cells (TIGIT/NFAT reporter Jurkat cells, BPS Bioscience #60538); Promega TIGIT Effector … (human, UniProt Q495A1 22-244)
T3 construct: whole, on cells; Same protein on two bought Jurkat lines (flow cytometry: BPS; bioassay: Promega); also called hu TIGIT cells; cells expressing human TIGIT
T3 sequence (looked up): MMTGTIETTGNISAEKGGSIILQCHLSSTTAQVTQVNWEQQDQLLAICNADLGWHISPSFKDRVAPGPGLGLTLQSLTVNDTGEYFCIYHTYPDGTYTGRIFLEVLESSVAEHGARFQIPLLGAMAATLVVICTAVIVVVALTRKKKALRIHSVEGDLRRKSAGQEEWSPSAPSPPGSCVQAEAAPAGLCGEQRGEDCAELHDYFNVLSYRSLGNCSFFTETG

B1: 43586p1.2.B2 (scFv, V domains shown)
VH: EMQLLESGGGLVQPGGSLRLSCAASGFTFDDYVMSWVRQAPGKGLEWVSLINWNGDKTYYADSVKGRFTISRDNSKNTLYLQMNSLRAEDTAIYYCAKHWIVFQYGMDVWGQGTTVTVSS
VL: QSVLTQPPSASGTPGQRVTISCSGSISNIETKYVSWYQQLPGTAPKLLIYNSDQRPSGVPDRFSGSKSGTSASLAISGLQSEDEADYYCVSWDASLKSWVFGGGTKLTVL
B2: 43586p1.2.C11 (scFv, V domains shown)
VH: B1 VH with M2V, Y60C
VL: B1 VL
B3: 43586p2.G10 (scFv, V domains shown)
VH: B1 VH with M2V, N54S, D56G, K57T, I93V, F103Y
VL: QSVLTQPSSASGTPGQRVTISCSGTISNIETKYVSWYKYVSWYQQLPGTAPKLLIYNNVQRPSGVPDRFSGSQSGTSASLAISGLQSEDEAHYYCASWEGGLNSWVFGGGTKLTVL
B4: 43645p1.D1 (scFv, V domains shown)
VH: EVQLLESGGDLVQSGGSLRLSCAASGFSFWGYAMTWVRQAPGKGLEWVSTIAGNSYTYYADSVKGRFTISRDNSKNMVYLQMNGLRAEDTAVYYCAKDRSFYNYYDIDVWGQGTTVTVSS
VL: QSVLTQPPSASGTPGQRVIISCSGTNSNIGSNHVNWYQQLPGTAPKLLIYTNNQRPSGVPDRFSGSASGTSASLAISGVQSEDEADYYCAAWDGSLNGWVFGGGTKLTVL
B5: 43645p1.D8 (scFv, V domains shown)
VH: B4 VH with T57A
VL: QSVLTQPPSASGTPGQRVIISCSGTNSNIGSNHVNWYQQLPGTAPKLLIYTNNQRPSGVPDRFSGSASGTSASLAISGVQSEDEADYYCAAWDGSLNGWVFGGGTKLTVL
B6: 43645p1.H10 (scFv, V domains shown)
VH: EVQLLESGGGLVQAGGSLRLSCAASGFTFDDYVMTWVRQAPGKGLEWVSLINWSGDRTYYADSVKGRFTISRDNSKNTLYLQMNSLRAEDTAVYYCVKHNLNYYYGMDVWGQGTTVTVSS
VL: QSVLTQPPSVSGTPGQRVTISCSGTISNVGNKYVSWYQQVPGTAPKLLIDYNQRPSGVPDRFSGSQSGTSASLTISGLQSEDEADYYCATWDDSLKGWVFGGGTKLTVL
B7: 43586p2.A03 (scFv, V domains shown)
VH: EVQLLESGGGLVQPGGSLRLSCAASGFTFTSYAMSWVRQAPGKGLEWVAGISYIGRNEYYADSVKGRLTISRDNSKNTLYLQMNNLRAEDTAIYYCAKHLTGGTTDYYYYGMDVWGQGTTVTVSS
VL: QSVLTQPPSASGTPGQRVTISCSGSTSNIGTSRYVHWYQQLPGTAPKLLIYFDSQRPSGVPDRFSASKSGTSASLAISGLQSEDEADYYCATWDDSLSAWVFGGGTKLTVL
B8: 43645p1.B2 (scFv, V domains shown)
VH: EVQLLESGGGLVQPGGSLRLSCATSGFTFSSYWMSWVRQAPGKGLEWVSGIHISDSTYYADSVKGRFTISRDNSKNTLYLQMNSLRAEDTAVYYCAKGHTVLQYGMDVWGQGTTVTVSS
VL: QSGLTQPPSASGTPGQRVTISCSGDISNTRNNYVSWYQQLPGTAPKLLIYGNHQRPSGVPDRFSGSKSATSASLAISGLQSEDEADYHCGTWDNTLNAWVFGGGTKLTVL
B9: 43645p1.D3 (scFv, V domains shown)
VH: B8 VH with T24A
VL: B8 VL with H88Y
B10: 43645p1.E3 (scFv, V domains shown)
VH: EVQLLESGGGLVQPGGSLRLSCAASGFTFSSYAMSWVRQAPGKGLEWVSAIYFDGSIYDADSVKGRFTISRDNSKNTLYLQMNSLRDEDTAVYYCAKSHTVLQYGMDVWGQGTTVTVSS
VL: B8 VL with G3V, D25V, I26T, T29I, N32S, H53D, A69G, H88Y

One experiment has as its target T1, his-tagged human TIGIT (Acro Biosystems …). The experiment can be described thus: ELISA, coated His-TIGIT, 1 ug/ml. For orientation: In an ELISA, binding on a coated surface is turned into a signal by an enzyme label.
Consider B1, for which the “Elisa OD450” value is 2.06 OD450.

Turning to B2, the “Elisa OD450” value was found to be 2.03 OD450.

As for B3, the “Elisa OD450” value stood at 2.21 OD450.

As to B4, the “Elisa OD450” value was determined as 2.02 OD450.

Consider B5, for which the “Elisa OD450” value was 1.77 OD450.

As for B6, the “Elisa OD450” value was found to be 2 OD450.

For the molecule B7, the “Elisa OD450” value is 1.96 OD450.

Consider B8, for which the “Elisa OD450” value stood at 2.42 OD450.

B9: the “Elisa OD450” value was 2.13 OD450.

As for B10, the “Elisa OD450” value stood at 1.99 OD450.

The target in the next experiment is T4, His-tagged cynomolgus monkey TIGIT (Acro Biosystems #TIT-05223) (cynomolgus monkey, UniProt A0A7N9I9V4 89-209).
T4 construct: Bought protein; also called cyno TIGIT; cynomolgus TIGIT; not shown: His tag
T4 sequence (A0A7N9I9V4 entry or part of it): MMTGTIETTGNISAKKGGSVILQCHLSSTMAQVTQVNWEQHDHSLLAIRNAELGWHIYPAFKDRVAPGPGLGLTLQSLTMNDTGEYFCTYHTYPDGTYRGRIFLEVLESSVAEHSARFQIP
The experiment can be described thus: ELISA, coated His-TIGIT, 1 ug/ml.
As to B1, the “Elisa OD450” value turned out to be 1.57 OD450.

In the case of B2, the “Elisa OD450” value is 1.81 OD450.

On to B3, for which the “Elisa OD450” value is 1.83 OD450.

As to B4, the “Elisa OD450” value was determined as 1.51 OD450.

With B5, the “Elisa OD450” value amounted to 1.36 OD450.

Consider B6, for which the “Elisa OD450” value worked out at 1.85 OD450.

Turning to B7, the “Elisa OD450” value turned out to be 1.41 OD450.

As to B8, the “Elisa OD450” value turned out to be 1.61 OD450.

As to B9, the “Elisa OD450” value turned out to be 1.74 OD450.

On to B10, for which the “Elisa OD450” value amounted to 1.53 OD450.

The target of the next experiment is T2, his-tagged murine TIGIT (Acro …). The experiment can be described thus: ELISA, coated His-TIGIT, 1 ug/ml.
As to B1, the “Elisa OD450” value came to 2.01 OD450.

As to B2, the “Elisa OD450” value came to 2.01 OD450.

On to B3, for which the “Elisa OD450” value amounted to 2.23 OD450.

For the molecule B4, the “Elisa OD450” value amounted to 0.047 OD450.

In the case of B5, the “Elisa OD450” value came to 0.053 OD450.

For the molecule B6, the “Elisa OD450” value amounted to 1.7 OD450.

With B7, the “Elisa OD450” value turned out to be 0.046 OD450.

As to B8, the “Elisa OD450” value turned out to be 1.85 OD450.

As for B9, the “Elisa OD450” value is 1.9 OD450.

Consider B10, for which the “Elisa OD450” value was 0.947 OD450.

A further experiment concerns the target T1, his-tagged human TIGIT (Acro Biosystems …). The experiment can be described thus: SPR (Carterra LSA), scFv-Fc captured, His-TIGIT analyte. The essentials:
(§1)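 Affinity from His-TIGIT analyte injected in 1:2 serial dilution over antibody captured as scFv-Fc via amine-coupled goat anti-human Fc on an HC30M surface. Supernatants diluted 30-fold in HBSTE; kinetic fitting.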
For the molecule B1, the equilibrium dissociation constant (Kd) came out at 0.245 nM.

B2: the affinity, expressed as Kd, was 0.0517 nM.

Take B3: the affinity, expressed as Kd, was 0.267 nM.

The molecule B4 displayed a dissociation constant Kd of 0.343 nM.

In the case of B5, the dissociation constant Kd is 0.416 nM.

As for B6, the affinity, expressed as Kd, was 0.128 nM.

For B7, the dissociation constant (Kd) worked out at 0.386 nM.

B8 returned a dissociation constant (Kd) of 0.0464 nM.

B9 came in with a Kd of 0.0171 nM.

As to B10, the Kd is 0.0267 nM.

A further experiment deals with T4, His-tagged cynomolgus monkey TIGIT …. Described as above. A digest of the protocol: as §1
Turning to B1, binding was characterised by a dissociation constant (Kd) of 14.3 nM.

With B2, the Kd stood at 2.56 nM.

Turning to B4, the Kd came to 17.6 nM.

For B5, the equilibrium dissociation constant (Kd) turned out to be 24.5 nM.

Turning to B7, the affinity, expressed as Kd, was 63 nM.

As to B10, binding was put at a Kd of 6.96 nM.

The next experiment addresses T2, his-tagged murine TIGIT (Acro …). Described as above. A digest of the protocol:
as §1
In turn, B1 came in with a dissociation constant Kd of 3.28 nM.

In turn, B2 returned a dissociation constant (Kd) of 1.45 nM.

In turn, B3 registered a Kd of 3.05 nM.

The target of the next experiment is T3, human TIGIT on Jurkat cells (TIGIT/NFAT …). The experiment can be described thus: flow cytometry, TIGIT/NFAT Jurkat cells, 10 ug/ml.
B1: the MFI was 9270 MFI.

The molecule B2 showed an MFI of 9550 MFI.

For the molecule B3, the MFI is 9400 MFI.

Consider B4, for which the MFI was 9250 MFI.

In turn, B5 displayed an MFI of 10300 MFI.

With B6, the MFI was 10000 MFI.

The molecule B7 showed an MFI of 9070 MFI.

On to B8, for which the MFI came out at 8950 MFI.

On to B9, for which the MFI worked out at 9350 MFI.

Turning to B10, the MFI came to 9950 MFI.

The next experiment shares this target. The experiment can be described thus: cell-based or functional assay.
For the molecule B1, the “max. signal (% of 22G2)” value is 121 % of 22G2.

B2: the “max. signal (% of 22G2)” value is 106 % of 22G2.

For B3, the “max. signal (% of 22G2)” value is 99 % of 22G2.

Regarding B4, the “max. signal (% of 22G2)” value is 111 % of 22G2.

For B5, the “max. signal (% of 22G2)” value is 108 % of 22G2.

As for B6, the “max. signal (% of 22G2)” value is 109 % of 22G2.

On to B7, for which the “max. signal (% of 22G2)” value is 109 % of 22G2.

B8: the “max. signal (% of 22G2)” value was 111 % of 22G2.

In the case of B9, the “max. signal (% of 22G2)” value was 115 % of 22G2.

As for B10, the “max. signal (% of 22G2)” value was 103 % of 22G2.

Another experiment addresses T4, His-tagged cynomolgus monkey TIGIT …. The experiment can be described thus: SPR (Carterra LSA), scFv-Fc captured, His-TIGIT analyte; repeat. Here is the method: (§2) Binding affinities of anti-TIGIT antibodies to human, cyno, and murine TIGIT were measured by Surface Plasmon Resonance (SPR) on a Carterra LSA instrument. Goat anti-human Fc antibody was amine coupled to a HC30M chip. ScFv-Fc supernatants were diluted 30-fold with HBSTE and were captured by the anti-human Fc coupled HC30M chip. A 1:2 dilution series of his-tagged human TIGIT, starting at 400 nM, was injected onto the chip for binding. A dilution series was also carried out for cyno TIGIT and murine TIGIT. Data were analyzed using the Carterra™ Kinetics software.
For the molecule B1, the equilibrium dissociation constant (Kd) stood at 1.8 nM.

B2 came in with a Kd of 1.9 nM.

With B3, the affinity, expressed as Kd, was 3.7 nM.

For B4, the affinity, expressed as Kd, was 2.9 nM.

B5 displayed a Kd of 1.9 nM.

Molecule B6 gave a Kd of 0.181 nM.

Turning to B7, the Kd is 33 nM.

Turning to B8, binding was characterised by a dissociation constant (Kd) of 0.93 nM.

Molecule B9 returned a dissociation constant (Kd) of 0.32 nM.

In the case of B10, binding was put at a Kd of 5.5 nM.

The target in another experiment is T2, his-tagged murine TIGIT (Acro …). The experiment is described as above. The procedure:
as §2
B1 showed a dissociation constant (Kd) of 1.3 nM.

Consider B2, for which the dissociation constant Kd amounted to 1.8 nM.

Turning to B3, the affinity, expressed as Kd, was 0.919 nM.

B4 displayed a dissociation constant Kd of 14 nM.

B6: the affinity, expressed as Kd, was 0.595 nM.

B8 gave a dissociation constant Kd of 42 nM.

B9 displayed a Kd of 19 nM.

As usually defined, the Kd is the constant that tells how readily two partners part at equilibrium.
